Assay results from patent US20150093799A1.
Blank lines part the entries; values can stand above or below the binder they belong to.

How the values were obtained:
[1] = target: anti-Jo-1 antibodies (commercially available, from human patient samples) (human); assay: immunodepletion: HRS polypeptide on NHS-agarose (Affi-gel 10), anti-Jo-1 antibodies (RDL) at 1:1,000, titre by ELISA before and after
[2] = target: anti-Jo-1 antibodies (commercially available, from human patient samples) (human); assay: competitive ELISA, full-length histidyl-tRNA synthetase on the plate
[3] = target: anti-Jo-1 antibodies (commercially available, from human patient samples) (human); assay: competitive ELISA: soluble competitor pre-incubated with anti-Jo-1 serum; competitor is plate-bound full-length human wild-type HisRS; A450
[4] = target: anti-Jo-1 antibodies (commercially available, from human patient samples) (human); assay: competitive ELISA: soluble HisRS pre-incubated with anti-Jo-1 human serum at 1:2,000; competitor is plate-bound full-length wild-type HisRS; A450
[5] = target: anti-Jo-1 antibodies (commercially available, from human patient samples) (human); assay: competitive ELISA: soluble competitor pre-incubated with anti-Jo-1 serum; competitor is plate-bound full-length wild-type HisRS; A450

percent of detectable Jo-1 antibodies removed [1]: 20% | concentration above which competition is seen [2]: > 100 nM
B1: Resokine (HRS(1-60)), His-tagged (peptide)
chain: MAERAALEELVKLQGERVRGLKQQKASAELIEEEVAKLLKLKAQLGPDESKQKFVLKTPKHHHHHH

percent of detectable Jo-1 antibodies removed [1]: < 99% | IC50 (read off the curve) [3]: 300 pM
B2: HRS(1-506) (enzyme)
chain: MAERAALEELVKLQGERVRGLKQQKASAELIEEEVAKLLKLKAQLGPDESKQKFVLKTPKGTRDYSPRQMAVREKVFDVIIRCFKRHGAEVIDTPVFELKETLMGKYGEDSKLIYDLKDQGGELLSLRYDLTVPFARYLAMNKLTNIKRYHIAKVYRRDNPAMTRGRYREFYQCDFDIAGNFDPMIPDAECLKIMCEILSSLQIGDFLVKVNDRRILDGMFAICGVSDSKFRTICSSVDKLDKVSWEEVKNEMVGEKGLAPEVADRIGDYVQQHGGVSLVEQLLQDPKLSQNKQALEGLGDLKLLFEYLTLFGIDDKISFDLSLARGLDYYTGVIYEAVLLQTPAQAGEEPLGVGSVAAGGRYDGLVGMFDPKGRKVPCVGLSIGVERIFSIVEQRLEALEEKIRTTETQVLVASAQKKLLEERLKLVSELWDAGIKAELLYKKNPKLLNQLQYCEEAGIPLVAIIGEQELKDGVIKLRSVTSREEVDVRREDLVEEIKRRTGQPL

percent of detectable Jo-1 antibodies removed [1]: 93% | IC50 (read off the curve) [3]: 300 pM | IC50 (read off the curve) [4]: 800 pM | IC50 (read off the curve) [5]: 30 pM
B3: Full-length histidyl-tRNA synthetase (HRS), His-tagged (enzyme)
chain: MAERAALEELVKLQGERVRGLKQQKASAELIEEEVAKLLKLKAQLGPDESKQKFVLKTPKGTRDYSPRQMAVREKVFDVIIRCFKRHGAEVIDTPVFELKETLMGKYGEDSKLIYDLKDQGGELLSLRYDLTVPFARYLAMNKLTNIKRYHIAKVYRRDNPAMTRGRYREFYQCDFDIAGNFDPMIPDAECLKIMCEILSSLQIGDFLVKVNDRRILDGMFAICGVSDSKFRTICSSVDKLDKVSWEEVKNEMVGEKGLAPEVADRIGDYVQQHGGVSLVEQLLQDPKLSQNKQALEGLGDLKLLFEYLTLFGIDDKISFDLSLARGLDYYTGVIYEAVLLQTPAQAGEEPLGVGSVAAGGRYDGLVGMFDPKGRKVPCVGLSIGVERIFSIVEQRLEALEEKIRTTETQVLVASAQKKLLEERLKLVSELWDAGIKAELLYKKNPKLLNQLQYCEEAGIPLVAIIGEQELKDGVIKLRSVTSREEVDVRREDLVEEIKRRTGQPLCICAAALEHHHHHH
